Source: paper PMC10658506

Molecular target: human gp130-Fc (UniProt P40189)
Experiment: flow cytometry on yeast-displayed IL-11
Conditions: 100 nM IL-11R added, read off a plot
[1] = 100 nM gp130-Fc, parent: est. 35000
[2] = 1000 nM gp130-Fc, parent: est. 40000

Chain of human gp130-Fc (P40189 whole entry, looked up, tested part not stated): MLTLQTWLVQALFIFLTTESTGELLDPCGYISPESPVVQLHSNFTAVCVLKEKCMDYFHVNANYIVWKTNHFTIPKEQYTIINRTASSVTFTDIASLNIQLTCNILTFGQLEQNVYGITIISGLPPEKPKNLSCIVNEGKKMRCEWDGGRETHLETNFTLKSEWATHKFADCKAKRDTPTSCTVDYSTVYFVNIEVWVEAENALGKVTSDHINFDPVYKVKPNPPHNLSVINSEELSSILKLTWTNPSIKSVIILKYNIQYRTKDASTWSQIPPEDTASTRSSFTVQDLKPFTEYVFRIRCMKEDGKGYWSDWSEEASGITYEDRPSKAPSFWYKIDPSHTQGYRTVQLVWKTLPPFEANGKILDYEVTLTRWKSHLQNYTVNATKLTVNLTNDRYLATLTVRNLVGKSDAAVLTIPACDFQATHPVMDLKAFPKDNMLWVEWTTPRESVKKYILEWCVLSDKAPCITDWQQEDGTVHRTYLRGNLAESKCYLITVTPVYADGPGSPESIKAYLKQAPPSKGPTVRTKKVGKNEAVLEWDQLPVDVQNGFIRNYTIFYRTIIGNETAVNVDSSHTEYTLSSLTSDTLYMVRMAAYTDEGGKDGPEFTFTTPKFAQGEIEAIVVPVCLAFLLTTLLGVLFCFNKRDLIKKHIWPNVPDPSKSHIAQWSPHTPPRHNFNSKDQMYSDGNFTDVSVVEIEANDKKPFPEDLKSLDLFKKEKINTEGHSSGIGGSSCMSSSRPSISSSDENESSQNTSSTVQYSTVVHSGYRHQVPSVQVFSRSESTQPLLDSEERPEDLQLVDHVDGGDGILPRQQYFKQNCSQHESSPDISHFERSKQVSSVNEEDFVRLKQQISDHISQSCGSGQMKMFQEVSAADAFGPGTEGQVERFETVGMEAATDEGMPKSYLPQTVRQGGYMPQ

Substance | response (Normalized Fluorescence) [1] | response (Normalized Fluorescence) [2] | response (Normalized Fluorescence) (10 nM gp130-Fc, parent: est. 28000)
yeast-displayed IL-11 GIPR precomplexed with soluble human IL-11R (from UniProt Q14626) L24R; W147A | 1900 | 4500 | –
yeast-displayed IL-11 GIPR precomplexed with soluble human IL-11R (from UniProt Q14626) W147A | 17000 | 26000 | 4900
